Results from the DeepSol protein solubility set.

Test: soluble on expression in E. coli; label from the status in PepcDB or PDB records

Row | Sequence | soluble on expression in E. coli
1 | MSLKRQRIVIKIGSSSLTTKQGALDLEKLEGYVRAIVNLRKAGHEVILISSGAVAAGFSRLGYPVRPTTMAGKQAAAAVGQALLMQHYMERFHQHGIIAAQLLLTRKDFQNQTQYTNAYSALMELLKRGALPIINENDSTSIAELTFGDNDMLSALVSGLIHAHTLCILTDVNGLYDANPKTHPNAKRYQYLPTIPDEMLQMGGEAGSNVGTGGMKSKVAAAQTALSLGVDVFIGKASGEHALLDILSGKGDGTYVGNTGDLMEGKTKQWIRLHSPVSGVVRIDQGAERAIMNEGKSLLPAGVTSVHGTFQAGDVVHIWNEQNKVIAKGQVTLSSEQLRKVQGRKSDEAKQLIPLVRDEVVHRDQLVIQEKELNESEGHHHHHH | not soluble
2 | MDSRLSDFLARAESVLARLEPLLPAVREAVDWERSLAARWHRDGRSGYLQPLEVSLDLRLADLLGVERQREQLERNTRQFVAGQPANHALLWGARGTGKSSLVRALLAELAGAGLRLIEIERDHLADLPRVVEQLQGLPQRFVLFCDDLSFDAGEGDYRVLKSVLDGSLEQAPENVLLYATSNRRHLVSEKQSDNENWKMVDGELHPNEAVEDKIALSDRFGLWLSFYPFTQEHFLSVVHHWVDVLAEKAGLAWSWSEELEKEAIRWALGRGNRNGRCAYQFSRYWVGKQLLERQA | not soluble
3 | MSDNYKFFRHDNCEYFPCHKVKDKETFNCLFCYCPLYFLENCGGNKSDFNGVKDCSNCLIPHSKNGYDYIINKIREVNKEKRAKNNLTLEHHHHHH | soluble
4 | MGSDKIHHHHHHMANQLILLKKDFFTDEQQAVTVADRYPQDVFAEHTHEFCELVMVWRGNGLHVLNERPYRITRGDLFYIRAEDKHSYTSVNDLVLQNIIYCPERLKLNVNWQAMIPGFQGAQWHPHWRLGSMGMNQARQVINQLEHESNGRDPLANEMAELLFGQLVMTLKRHRYATDDLPATSRETLLDKLITALANSLECPFALDAFCQQEQCSERVLRQQFRAQTGMTINQYLRQVRICHAQYLLQHSPLMISEISMQCGFEDSNYFSVVFTRETGMTPSQWRHLSNQSD | not soluble
5 | MAHHHHHHMREARERARIAEAEADSAMEAADRAILEELLRKDEEERRAAAEREAAARRAAEERAAAERLKAEDEARQAAEAARQRALEEERQRQRESAKQAAKSQLHDEPSTDVATSETVQISVRCPSGKHYDRRFLRSDLVDQLTFFVLTLDEVADATDASTVRFVTGFPPAPLVWREGETRFGDVKSLCPRAVVLLRRL | not soluble
6 | MKKLAFAVTVASGAAAVIANHEADASTQHTVKSGESLWSISQQYGVSVDEIKQSNDINNNMVFPGQVIEIGGSSSQESGSTSNNTSNGSSHTVQSGESLNIIANQYGVSVDEIIAANNLNGYLIHPNQTLTIPGTTGTGGSGGTATETPSSNTGGSTASDANLYDWGQCTWHVFNRRAETGQPISTYWWNADHWANNASADGYTVNNAPTAGSIMQNYEGPVGHVAYVERVNPDGSILISEMNYNTPPGTVDYRTIPASQASSYNYIHLEHHHHHH | not soluble
7 | MGSDKIHHHHHHMIIELFGPPGAGKTTLLRGLCQGMAKHGINVKTVNGYRLIEYGSAQEDGPEVRHGIGRIGKKIATSGPVLLSTLPKDGVAARLLASIPLRSLTWSWRMKVDIALLCESWRQAQESEGYFIFEEGIIQALCALVVLARTPSIDVVRDCLAFLPRPDLLIQLDAPQETLRRRLMDRHAQQPLLEVLLFELGVDRGLRQADISRDIGKCLRQDGWPLIKVNGAEPHDLDKIITRILEEHETVPV | not soluble
8 | TPTEGLTIGDKAPTFTICGEKQLIDLKDLRGKYVLLSFWASYDALSRMQNATLNHAVAQADNVEMVSVSFDEYKSIFNETIKKDQISTSNCFVELAGVSSDLYQTYRLKRGFKNFLLDENGVIVAKDVTVSELSS | not soluble
9 | MGSDKIHHHHHHMKDWWQATFPNGRQTLIITDAKGYPVEISYGEKGKGKPLILLHGMGSWSYNWRHSVTELSKYFRVICFDAKGFGFSEKPLSRREHNGHQVIEFQRIIQALCDEPAVIVAESLGGLVALALAQENPQLIGQLVVVNVPVFAKRLPHWAMGLLAQTPLEIIQTIDSLRLAYFFAPLLREIMAIERRGVLFDPSILTKEDVYWITYPFIEFPGTLVKVAEELQIAAREIENWQADKPNMLTKIQNKLSIIKCPTLVLWGDQDSWFPATHGEKLHQHIPNSKLKILSNCYHDASTGASKELNAAILEFLRDGNTVLRSLDS | not soluble
10 | MKFVAPEQAPEQAEVIKNTPFWPDVDLSEFRSVMRTDGTVTQPRLKQVVLTAISEVNAELYDFRNRQQMLGWRTLAEVPAEMLDGKSERIRHYHNAVFCWARAVLNERYQDYDATASGVKRGEELAEASGDLWRDARWAISRVQDVPHCTVELI | not soluble
11 | MTQLNQRRRGNRLENAIYDTTYTLLSQYGLDQVTFSRVATAAATSRSVLYRYWDSTFDLIFHTIIHQIQKTPIALTTTPLDTGSLRTDLILLAQRFIQQTSTGPFRYFRLLFATALNAQNQRDLTQLVTQIDHANLTLIEPLLTNAQNHGELQIWPNQAAQLVLFQQLRYCDIINQPMNTDQQLTNLIDQVVLPALRASGVANRHFHH | not soluble
12 | MGSDKIHHHHHHMIHLSNITKQHGAQVLFRDASFQILPGTRTGLVGPNGAGKTTIFRIITGEEEVDAGEMTCAKKTTVGYFSQDVGEMAGRSALEEVMAGSAETVRLAAELKEMEAAMCEPQSDDEMAALLERYGAAQEEFEHRGGYDLDTRAQTVLTGLGIGPDRFHHPVESFSGGWKMRIALAKILTLKPDVLLLDEPTNHLDVESIIWLEEWLANDFDGALLMTSHDRDFMNRIVTRIIEVANRTVTTYGGNYDFYERERDIRREQLLASHKRQQEMLAKEEEFIARFAARASHAAQVQSRVKKLEKIERIEIPAEERMVRFEFSEPPRSGEDVVVMENLGKVWQTPDGGEKPVFGGVSGIIRRLNKIAVVGVNGAGKSTFLKVLAGQTEPTTGTVTIGANVELGYFSQHAMEVLDPKKTVFETVQEAMPLANIGVIRNLLAAFLFQGDTVDKRVENLSGGEKSRVVLATLLARPVNFLVLDEPTNHLDIRSREILLDALRNFAGTVVIVSHDRHFLRSLVDRVFEVDHGEMRVYEGDYSYYLRKSHELHGLP | not soluble
13 | VAKKKRKLKVIPLGGLGEIGKNITVFEYGDDIFVVDCGIAFPEDDMLGIDLVIPDISYLTKNREKVRGIVLTHGHEDHIGALPYVLKDLNVPVYGTKLTLGLLEQKLEEHGLLNNVVLNVVKHSDVIELGCFKVEFIRSTHSIADSTALAIFTPVGTIFHTGDFKIDYTPIEGEPIDLARLAELGKKGVLLLMCDSTNVEREGYTMSEKTVGETFDEIFMNAKNRILVATFASNVHRIQQIVNAAIKFGRKIAICGRSMVNVVNVAMELGYMNVPEGLIIDIDHINKYPPEKIVIITTGSQGEPMSALTRMASGDHKKVEIIPGDLVIISANPIPGNEKLVSRVVNDLFKKGAEVIYESLADIHVSGHASQEELKLIHRLIRPKYFMPVHGEYRHLKRHANLAVELGMSPENIFIMDIGKVLELTNDSAKINGSVNAGRVLVDGLGVGDVGNIVLRDRKHLSQDGLIVVVITIEGDTGNVIAGPDVISRGFVYVRESEDLMEEIREVCKAALQKCNDKKKNDWSTKKSIIRDALRDFLYERTKRRPMILPIIMEV | soluble
14 | MGFFNFIKTVGEKLGIGDSEPTEKDFKTAFDNFQLGTEKVNIQVENGKVVLSGEVPDRETLEKALLVVGNAQGISSVDIGQLKVADTACMKASRFYEVKSGDNLWKIAEEVYGKGQGDKNTFIFEANKPMLKSPDKIYPGQVLRIPEIDRA | not soluble
15 | MGHHHHHHSHMANSAGSMANSAGSMPPLSTIDPSGTRSKNMPIKDNALVMFNGKVYLLAKKGTDVLPSQIDQQNSVSPDTPVRKDTLQTVSSSPVTEISREVVNIVLAKSKSSQMETKSLSNTQLASMANLRAEKNKVEKPSPSTTNPHMNQSSNYLKQSKTLFTNPIFPVGFSTGHNAPRKVTAVIYARKGSVLQSIEKISSSVDATTVTSQQCVFRDQEPKIHNEMASTSDKGAQGRNDKKDSQGRSNKALHLKSDAEFKKIFGLTKDLRVCLTRIPDHLTSGEGFDSFSSLVKSGTYKETEFMVKEGERKQQNFDKKRKAKTNKKMDHIKKRKTENAYNAIINGEANVTGSQLQYFTNFRCVTT | not soluble
16 | MEFMMEIQGNRKELMVSKIKNGTVIDHIPAGRAFAVLNVLGIKGHEGFRIALVINVDSKKMGKKDIVKIEDKEISDTEANLITLIAPTATINIVREYEVVKKTKLEVPKVVKGILKCPNPYCITSNDVEAIPTFKTLTEKPLKMRCEYCETIIDENEIMSQILGANNK | soluble
17 | MKNWLAYINSLHSREIDLGLSRITSLAEKLSLNNFACPVVTVAGTNGKGSVVKSLESIYLAAGYKVAAYTSPHLLQFNERLRLNGEPATDELFIEAFKFIEDNRNHQPLSFFEFTTLAIFYICKKQNLDILLLEVGLGGRLDAVNIVEPDVAVITTIDIDHTDWLGEDRESIGREKAGIIRRHKPVIGGDPNLPNSVYEQVHLLEAPFYQLEKDFFAVSTKENWQWQGPTQDYQGLPLPSLKIENIATSLMVIHCLQSQLPVSQHSLIAGIKNAVLPGRFEWIQTPAPIVFDVAHNPQATAYLSEQLRKTDHAGRTLGVVGMLRDKDIPGALKPMLPCIDQWYAGTLSESRGATSANLQNVLSELQVENCYNFDSVADAFKKAVEDCRPQDRIVVFGSFYTVAMAKEVLLGGENGN | soluble
18 | MKFSTIFGATTVMTAVSAAAVSSVMTTKTITATNGNNVYTKVVTDTADPIISYSTTRTVVVSNSDATYTKVVTEGPDTTSEKSTTKTLTLTNGSGSSTNLYTKTVTQAVESSTSSSSSSSSSSSSASSSGAAPAAFQGASVGALALGLISYLL | soluble
19 | TDDVEEDGEPSYKRVAEPEEDESAKPFGGEKAKAARPEPAVKGVRHTSPAPTAAPEKKTSWWDSFKAWLKRIFGGSETQAAPAAETSEKRSTANRSGSRANNRRQNPRRSKREGSKVEVREVAGKTAGQEARADKAETRNNGNRRRNERGDRAAERANEAEIQSRNVQPAATVADAAPSETEVQTGKRRRNGSRSERGQTAPETATVAETTVQTAENTPSEPHTAEDKGSKPKSERNRRERDSRDAKERRERNNQRDRRQNGKKRNIPSAAKIEQYLNIHDTADKVRSAAAHVFGETDANAPITVSIADPVAERDLPTASPAVSNGDAPVYDAAEKIRRATAAILPEGATPKAEAQEMPSETATFTAAAEQARETAQTGGLVLIETDPAALKAWAAQPEVQAGRGLRRSEQPKPSEVATVPAEEMIQVETRQG | not soluble
20 | MVLSQTHHHHHRHEGNDRSLISILTDPIVNLFRSIPIEILDQNEELSPSQKDFLDDFLELQNDSDLEESEDFIQESQEVVSSVDDEIKVILNEIINQVETETQLIPKIIIHSDDAEVPEESIEIAVQSFGCPLDSFSGLSDSGVDLTVDDVPDDEDDEITVQTFESTPKELPTVTKFTNCTFIRSQSSARCKAILPDTTYICTLPPVSATFSAPVVTPKKIVKRKKSTSAAAKMAAEVLQNEPHCFIAPSSSIDRPFKLLVQKETFLIDAESMSRISPIFNVMCFGKDFEKMDLSREIVDEKSNDIDCFLRAVHDTSMINSSNFALVLRLSNKYQVDPVIDACQNFIIRQHLDVLRADEILTMLIAAFEHHCKREVVQKLIKRLASEGNSVFTKLKISRYLPAQVYGSVISTSMNLNQAKEHELMNGHVLKMERSKIRWRQSVCEECKSVAECANCEECKKTVCRNHVSKLKCSSDYGAKLAADLKKKIVDFEWQD | not soluble
21 | GALPDPVKPKAPKAVNPFHLGMAGYTFVNFDLDTTLKTLERLDIHYLCIKDFHLPLNSTDEQIRAFHDKCAAHKVTGYAVGPIYMKSEEEIDRAFDYAKRVGVKLIVGVPNYELLPYVDKKVKEYDFHYAIHLHGPDIKTYPDATDVWVHTKDLDPRIGMCLDVGHDLRNGCDPVADLKKYHTRVFDMHIKDVTDSSKAGVGIEIGRGKIDFPALIRMMREVNYTGMCSLEYEKDMKDPFLGIAESIGYFKAVSDLT | soluble
